Experimental data from US20130123481A1, “MODIFIED NUCLEOSIDES, NUCLEOTIDES, AND NUCLEIC ACIDS, AND USES THEREOF” (MODERNA THERAPEUTICS, priority 2011, published 2013).

How the values were obtained:
[1] = test system: peripheral blood mononuclear cells (PBMC), IFN-alpha; experiment: In Vitro PBMC Studies: Percent modification - IFN-alpha expression; type: cell-based, human
Procedure: (§1) The supernatant was harvested and run by ELISA 22 hours after transfection to determine the protein expression.

[2] = test system: peripheral blood mononuclear cells (PBMC), TNF-alpha; experiment: In Vitro PBMC Studies: Percent modification - TNF-alpha expression; type: cell-based, human
Procedure: as §1

[3] = test system: peripheral blood mononuclear cells (PBMC); experiment: In Vitro PBMC Studies: Percent modification - G-CSF expression; type: cell-based, human; settings: for G-CSF Expression: 480 ng mRNA
Procedure: 480 ng of G-CSF mRNA modified with 5-methylcytosine (5mC) and pseudouridine (pseudoU) or unmodified G-CSF mRNA was transfected with 0.4 uL of Lipofectamine 2000 into peripheral blood mononuclear cells (PBMC) from three normal blood donors (D1, D2, and D3). […] The supernatant was harvested and run by ELISA 22 hours after transfection to determine the protein expression. The expression of IFN-alpha and TNF-alpha may be a secondary effect from the transfection of the G-CSF mRNA.

[4] = test system: peripheral blood mononuclear cells (PBMC); experiment: Modified RNA transfected in PBMC (0.1-100% modification) - G-CSF expression; type: cell-based, human
Procedure: 500 ng of G-CSF mRNA modified with 5-methylcytosine (5mC) and pseudouridine (pseudoU) or unmodified G-CSF mRNA was transfected with 0.4 uL of Lipofectamine 2000 into peripheral blood mononuclear cells (PBMC) from three normal blood donors (D1, D2, and D3). […] The supernatant was harvested 6 hours and 18 hours after transfection and run by ELISA to determine the protein expression. The expression of G-CSF, IFN-alpha, and TNF-alpha for Donor 1 is shown in Table 10, Donor 2 is shown in Table 11 and Donor 3 is shown in Table 12.

mice = experiment: Intravenous Administration - neutrophil count; type: in vivo, mouse; settings: for Neutrophil: I.V. 50 ug RNA at days 0, 2 and 4, 10% lipoplex
Procedure: Neutrophils were measured at days 1, 5 and 8. Controls included non-specific mammalian RNA or the formulation buffer alone (F.Buffer). The mice were bled at days 1, 5 and 8 to determine the effect of mRNA-encoded human G-CSF to increase neutrophil count. The dosing regimen is shown in Table 21 as are the resulting neutrophil counts (thousands/uL; K/uL).
In Table 21, an asterisk (*) indicates statistical significance at p<0.001 compared to buffer.

B1: 100% modification: G-CSF mRNA (SEQ ID NO: 1, Cap1) completely modified with 5mC and pseudoU (nucleic acid, listed as Homo Sapiens)
chain: GGGAAAUAAGAGAGAAAAGAAGAGUAAGAAGAAAUAUAAGAGCCACCAUGGCCGGUCCCGCGACCCAAAGCCCCAUGAAACUUAUGGCCCUGCAGUUGCUGCUUUGGCACUCGGCCCUCUGGACAGUCCAAGAAGCGACUCCUCUCGGACCUGCCUCAUCGUUGCCGCAGUCAUUCCUUUUGAAGUGUCUGGAGCAGGUGCGAAAGAUUCAGGGCGAUGGAGCCGCACUCCAAGAGAAGCUCUGCGCGACAUACAAACUUUGCCAUCCCGAGGAGCUCGUACUGCUCGGGCACAGCUUGGGGAUUCCCUGGGCUCCUCUCUCGUCCUGUCCGUCGCAGGCUUUGCAGUUGGCAGGGUGCCUUUCCCAGCUCCACUCCGGUUUGUUCUUGUAUCAGGGACUGCUGCAAGCCCUUGAGGGAAUCUCGCCAGAAUUGGGCCCGACGCUGGACACGUUGCAGCUCGACGUGGCGGAUUUCGCAACAACCAUCUGGCAGCAGAUGGAGGAACUGGGGAUGGCACCCGCGCUGCAGCCCACGCAGGGGGCAAUGCCGGCCUUUGCGUCCGCGUUUCAGCGCAGGGCGGGUGGAGUCCUCGUAGCGAGCCACCUUCAAUCAUUUUUGGAAGUCUCGUACCGGGUGCUGAGACAUCUUGCGCAGCCGUGAAGCGCUGCCUUCUGCGGGGCUUGCCUUCUGGCCAUGCCCUUCUUCUCUCCCUUGCACCUGUACCUCUUGGUCUUUGAAUAAAGCCUGAGUAGGAAG
modifications: Cap1; 5-methylcytidine and pseudouridine
Average IFN-a [1]: 153 pg/mL | ratio of protein/cytokine production relative to natural G-CSF mRNA, IFN-alpha ([1]; PBMC, Table 9): 100 fold | G-CSF/IFN-alpha (PC ratio) ([1]; calculated from Tables 7 and 8): 16 | Average TNF-a [2]: 47 pg/mL | ratio of protein/cytokine production relative to natural G-CSF mRNA, TNF-alpha ([2]; PBMC, Table 9): 27 fold | G-CSF/TNF-alpha (PC ratio) ([2]; calculated from Tables 7 and 8): 52 | G-CSF Expression ([3]; PBMC donor D1, 0.4 uL Lipofectamine 2000, ELISA 22 hours after transfection): 1968.9 pg/mL | G-CSF Expression ([3]; PBMC donor D2, 22 hours after transfection): 2595.6 pg/mL | G-CSF Expression ([3]; PBMC donor D3, 22 hours after transfection): 2835.7 pg/mL | Average G-CSF ([3]; average of PBMC donors D1-D3): 2466 pg/mL | G-CSF ([4]; PBMC Donor 1, 500 ng mRNA, 6 hours after transfection): 1815 pg/mL | G-CSF ([4]; PBMC Donor 1, 18 hours after transfection): 2224 pg/mL | G-CSF ([4]; PBMC Donor 2, 6 hours after transfection): 2184 pg/mL | G-CSF ([4]; PBMC Donor 2, 18 hours after transfection): 2432 pg/mL | G-CSF ([4]; PBMC Donor 3, 6 hours after transfection): 6086 pg/mL | G-CSF ([4]; PBMC Donor 3, 18 hours after transfection): 7549 pg/mL

B2: G-CSF (no modification): human G-CSF mRNA having no modifications, formulated in 10% lipoplex (RNAIMAX) (nucleic acid, listed as Homo Sapiens)
chain: GGGAAAUAAGAGAGAAAAGAAGAGUAAGAAGAAAUAUAAGAGCCACCAUGGCCGGUCCCGCGACCCAAAGCCCCAUGAAACUUAUGGCCCUGCAGUUGCUGCUUUGGCACUCGGCCCUCUGGACAGUCCAAGAAGCGACUCCUCUCGGACCUGCCUCAUCGUUGCCGCAGUCAUUCCUUUUGAAGUGUCUGGAGCAGGUGCGAAAGAUUCAGGGCGAUGGAGCCGCACUCCAAGAGAAGCUCUGCGCGACAUACAAACUUUGCCAUCCCGAGGAGCUCGUACUGCUCGGGCACAGCUUGGGGAUUCCCUGGGCUCCUCUCUCGUCCUGUCCGUCGCAGGCUUUGCAGUUGGCAGGGUGCCUUUCCCAGCUCCACUCCGGUUUGUUCUUGUAUCAGGGACUGCUGCAAGCCCUUGAGGGAAUCUCGCCAGAAUUGGGCCCGACGCUGGACACGUUGCAGCUCGACGUGGCGGAUUUCGCAACAACCAUCUGGCAGCAGAUGGAGGAACUGGGGAUGGCACCCGCGCUGCAGCCCACGCAGGGGGCAAUGCCGGCCUUUGCGUCCGCGUUUCAGCGCAGGGCGGGUGGAGUCCUCGUAGCGAGCCACCUUCAAUCAUUUUUGGAAGUCUCGUACCGGGUGCUGAGACAUCUUGCGCAGCCGUGAAGCGCUGCCUUCUGCGGGGCUUGCCUUCUGGCCAUGCCCUUCUUCUCUCCCUUGCACCUGUACCUCUUGGUCUUUGAAUAAAGCCUGAGUAGGAAG
modifications: Cap1; polyA tail; lipoplex
Neutrophil (mice; Day 1): 1.88 K/uL | Neutrophil (mice; Day 5): 1.95 K/uL | Neutrophil (mice; Day 8): 2.09 K/uL

B3: G-CSF modified mRNA: control modified G-CSF mRNA (SEQ ID NO: 1, Cap 1), fully modified 5-methylcytosine and pseudouridine, 8.4 nM (nucleic acid, listed as Homo Sapiens)
chain: GGGAAAUAAGAGAGAAAAGAAGAGUAAGAAGAAAUAUAAGAGCCACCAUGGCCGGUCCCGCGACCCAAAGCCCCAUGAAACUUAUGGCCCUGCAGUUGCUGCUUUGGCACUCGGCCCUCUGGACAGUCCAAGAAGCGACUCCUCUCGGACCUGCCUCAUCGUUGCCGCAGUCAUUCCUUUUGAAGUGUCUGGAGCAGGUGCGAAAGAUUCAGGGCGAUGGAGCCGCACUCCAAGAGAAGCUCUGCGCGACAUACAAACUUUGCCAUCCCGAGGAGCUCGUACUGCUCGGGCACAGCUUGGGGAUUCCCUGGGCUCCUCUCUCGUCCUGUCCGUCGCAGGCUUUGCAGUUGGCAGGGUGCCUUUCCCAGCUCCACUCCGGUUUGUUCUUGUAUCAGGGACUGCUGCAAGCCCUUGAGGGAAUCUCGCCAGAAUUGGGCCCGACGCUGGACACGUUGCAGCUCGACGUGGCGGAUUUCGCAACAACCAUCUGGCAGCAGAUGGAGGAACUGGGGAUGGCACCCGCGCUGCAGCCCACGCAGGGGGCAAUGCCGGCCUUUGCGUCCGCGUUUCAGCGCAGGGCGGGUGGAGUCCUCGUAGCGAGCCACCUUCAAUCAUUUUUGGAAGUCUCGUACCGGGUGCUGAGACAUCUUGCGCAGCCGUGAAGCGCUGCCUUCUGCGGGGCUUGCCUUCUGGCCAUGCCCUUCUUCUCUCCCUUGCACCUGUACCUCUUGGUCUUUGAAUAAAGCCUGAGUAGGAAG
modifications: Cap1; 5-methylcytosine and pseudouridine
increase in neutrophil count above control at day 5 (mice; intravenous administration): four to five fold increase
